Patent US20210388068A1 (UNIVERSITY OF MASSACHUSETTS, published 2021)

Tests used:
[1] = molecular target: T1, N-terminal adhesin domain of CfaE fused to maltose-binding protein (MBP-CfaE-N) (enterotoxigenic Escherichia coli (ETEC), UniProt P25734 23-200); assay: ELISA on plate-bound MBP-CfaE-N, anti-human IgG Fc-AP, OD405
T1 construct: domain: N-terminal adhesin domain; expressed in SHuffle T7 E. coli and purified on amylose resin; also called recombinant CfaE-N; wild-type CfaE; not shown: donor strand complement included as in Poole et al. 2007
T1 sequence (looked up): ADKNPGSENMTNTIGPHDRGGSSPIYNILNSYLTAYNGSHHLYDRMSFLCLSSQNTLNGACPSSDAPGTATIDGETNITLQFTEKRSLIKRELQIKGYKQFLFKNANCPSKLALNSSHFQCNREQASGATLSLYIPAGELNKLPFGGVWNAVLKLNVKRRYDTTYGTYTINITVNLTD
Source text: FIG. 1A is a graph showing concentration-dependent binding of anti-CfaE antibodies as measured by ELISA. IgG bound to immobilized recombinant CfaE-N was detected with an anti-human IgG Fc-chain-specific alkaline phosphatase-conjugated antibody. Error bars represent the range in OD values observed in two independent experiments. The binding curves of the ten anti-CfaE antibodies are superimposed.
(§1) For binding activity of purified HuMAbs against CfaE, 96-well plates (Nunc) were coated overnight at 4° C. with 2 μg/mL of purified MBP-CfaE-N. Plates were blocked with 1% BSA+0.05% Tween 20 in PBS. Purified HuMabs were diluted in 1×PBS+0.1% Tween 20 and added to plates for 1 hour. Plates were stained with alkaline phosphatase-conjugated goat anti-human IgG Fcγ (Jackson ImmunoResearch Laboratories) (1:1,000) for 1 hour and developed using p-nitrophenyl phosphate (ThermoFisher Scientific).

[2] = molecular target: T1, N-terminal adhesin domain of CfaE fused …; assay: ELISA on plate-bound wild-type MBP-CfaE-N, OD405
Experimental: as §1
To define the antibody-binding epitope, putative antibody-antigen interaction models were established based on a previously resolved CfaE structure (PDB ID 2Hb0) and the HuMab antibody sequences using an antibody modeling program, BioLuminate (Schrodinger). This software suite develops models of antibody structures from their sequences, followed by computational docking to identify high-confidence antibody-antigen complex models. Based on these models, the software identified potential residues critical for binding interaction. The effect of these residues on the binding activity of the HuMAbs was analyzed by experimental alanine scanning followed by ELISA. […] The R67A mutation eliminated binding activity of HuMab 68-51 and 68-97 (FIG. 3B), while the Y183A mutation affected binding activity of HuMab 68-51, 68-97, 68-90, 67-102, and 840-53 (FIG. 3E). […] T91A mutation eliminated binding activity of HuMAb 840-53 and reduced binding activities of HuMAbs 68-51, 68-61, 840-53 and 68-48 (FIG. 3C). N127A mutation eliminated binding activity of HuMAb 68-61 and reduced binding of HuMAbs 68-48 and 68-6 (FIG. 3F). All mutations were found on the surface exposed loops of the N-terminal domain of the CfaE (FIG. 3G). No residues involved in the binding of MAb 68-75 to CfaE were identified.

[3] = molecular target: T2, MBP-CfaE-N Tyr183Ala mutant (enterotoxigenic Escherichia coli); assay: ELISA on plate-bound MBP-CfaE-N Tyr183Ala mutant, OD405
T2 construct: tag;N-terminal adhesin domain; not in the list MOLECULES; also called Y183A
Experimental: as §1
To define the antibody-binding epitope, putative antibody-antigen interaction models were established based on a previously resolved CfaE structure (PDB ID 2Hb0) and the HuMab antibody sequences using an antibody modeling program, BioLuminate (Schrodinger). This software suite develops models of antibody structures from their sequences, followed by computational docking to identify high-confidence antibody-antigen complex models. Based on these models, the software identified potential residues critical for binding interaction. The effect of these residues on the binding activity of the HuMAbs was analyzed by experimental alanine scanning followed by ELISA. […] The R67A mutation eliminated binding activity of HuMab 68-51 and 68-97 (FIG. 3B), while the Y183A mutation affected binding activity of HuMab 68-51, 68-97, 68-90, 67-102, and 840-53 (FIG. 3E). […]

B1: anti-CfaE HuMab 68-90 (antibody, human IgG1, V domains shown)
VH: QVQLQQWGAGLLKPSETLSLTCAVYGGSFSAYYWSWIRQPPGKGLEWIGEINHSGNTNYNPSLESRVTISVDTSKNQVSLKQSSVTAADTAVYYCARNWGPNAFDIWGRGTMVTVSS
VL: DIQMTQSPSSVSASVGDRVTITCRASQDITSWLVWYQHKPGKAPKLLIYAASSLQSGVPSRFSGSGSGTDFTLTISSLQPEDFATYYCQQANIFPYTFGQGTKLEIK
notes: also called 068-90
[1]
  EC50 (read off the curve): ~0.03 µg/mL
[2]
  EC50 (read off the curve): ~0.03 µg/mL

B2: anti-CfaE HuMab 68-48 (antibody, human IgG1, V domains shown)
VH: QVQLQQWGAGLLKPSETLSLTCAVYGGSFSGYSWSWIRQSPGKGLEWIGEIYHSGSTNYNPSLKSRVTISGDTSKNQFSLKLSSVTAADTAVYYCARENLQGYYYYGMDVWGQGTTVTVSS
VL: AIQLTQSPSSLSASVGDRVTITCRASQGISSSLAWYQQKPGKAPKLLIYDASSLESGVPSRFSGSGSGTDFTLTISSLQPEDFATYYCQQFNSYPRTFGQGTKVEIK
notes: also called 068-48
[1]
  EC50 (read off the curve): ~0.03 µg/mL
[2]
  EC50 (read off the curve): ~0.03 µg/mL
[3]
  EC50 (read off the curve): ~0.01 µg/mL

B3: anti-CfaE HuMab 68-61 (antibody, human IgG1, V domains shown)
VH: QVQLVQSGAEVKNPGSSVRVSCEASGGTFSSFAISWVRQAPGQGLEWMGRIIPILDIVKYAQRFQGRVTISADKSTSTAYMELSSLRSEGTAVYYCARDDIAGSDFDIWGQGTMVTVSS
VL: DIQMTQSPSSLSASVGDRVTITCRASQGISSWLAWYQQKPEKAPKSLIYAASSLQSGVPSRFSGSGSGTDFTLTISSLQPEDFATYYCQQYTSYPYTFGQGTKLEIK
notes: also called 068-61
[1]
  EC50 (read off the curve): ~0.03 µg/mL
[2]
  EC50 (read off the curve): ~0.03 µg/mL
[3]
  EC50 (read off the curve): ~0.01 µg/mL
